Experiments:
Experiment in all cases: FCPIA (flow cytometry protein interaction assay, Luminex beads); Gαo affinities for RGS4Δ51N wild type and mutants on beads, with AMF
[1] = target: MBP-RGS4Δ51N A132C in the -7C (UniProt P49799)
[2] = target: MBP-RGS4Δ51N A95C in the -7C (UniProt P49799)
[3] = target: MBP-RGS4Δ51N with no Cys in the RGS domain (UniProt P49799)
[4] = target: MBP-RGS4Δ51N -7C mutant (all 7 cysteines removed) (UniProt P49799)
[5] = target: MBP-RGS4Δ51N A71C in the -7C (UniProt P49799)
[6] = target: MBP-RGS4Δ51N with no Cys in the C-terminus (UniProt P49799)
[7] = target: MBP-RGS4Δ51N A148C in the -7C (UniProt P49799)

Sequence of Gαo, Alexa Fluor 532-labeled (P59215 whole entry): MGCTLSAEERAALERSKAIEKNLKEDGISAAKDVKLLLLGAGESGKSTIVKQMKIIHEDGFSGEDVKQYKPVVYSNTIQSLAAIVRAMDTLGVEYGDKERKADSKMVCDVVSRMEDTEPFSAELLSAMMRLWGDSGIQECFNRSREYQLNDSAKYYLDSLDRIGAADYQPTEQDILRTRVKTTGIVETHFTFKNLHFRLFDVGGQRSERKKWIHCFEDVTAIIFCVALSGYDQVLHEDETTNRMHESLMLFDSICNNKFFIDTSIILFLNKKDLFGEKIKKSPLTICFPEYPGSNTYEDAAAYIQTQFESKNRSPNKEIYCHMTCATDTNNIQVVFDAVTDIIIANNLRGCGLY

Kd [1]: 12.5 nM
Kd [2]: 12 nM
Kd [3]: 3.9 nM
Kd [4]: 8.3 nM
Kd [5]: 9.2 nM
Kd [6]: 5 nM
Kd [7]: 5.7 nM
Substance: Gαo, Alexa Fluor 532-labeled (from UniProt P59215 1-354) (natural protein)

From paper PMC2700083, “A covalent peptide inhibitor of RGS4 identified in a focused one-bead, one compound library screen” (BMC Pharmacology, 2009)
